# In patent US20240209070A1, “COTH3 BINDING AGENTS AND USES THEREOF” (priority 2021, published 2024):
# T1: Mucorales CotH2 (Rhizopus delemar, UniProt I1C4E4)
# T1 sequence (I1C4E4 whole entry, looked up): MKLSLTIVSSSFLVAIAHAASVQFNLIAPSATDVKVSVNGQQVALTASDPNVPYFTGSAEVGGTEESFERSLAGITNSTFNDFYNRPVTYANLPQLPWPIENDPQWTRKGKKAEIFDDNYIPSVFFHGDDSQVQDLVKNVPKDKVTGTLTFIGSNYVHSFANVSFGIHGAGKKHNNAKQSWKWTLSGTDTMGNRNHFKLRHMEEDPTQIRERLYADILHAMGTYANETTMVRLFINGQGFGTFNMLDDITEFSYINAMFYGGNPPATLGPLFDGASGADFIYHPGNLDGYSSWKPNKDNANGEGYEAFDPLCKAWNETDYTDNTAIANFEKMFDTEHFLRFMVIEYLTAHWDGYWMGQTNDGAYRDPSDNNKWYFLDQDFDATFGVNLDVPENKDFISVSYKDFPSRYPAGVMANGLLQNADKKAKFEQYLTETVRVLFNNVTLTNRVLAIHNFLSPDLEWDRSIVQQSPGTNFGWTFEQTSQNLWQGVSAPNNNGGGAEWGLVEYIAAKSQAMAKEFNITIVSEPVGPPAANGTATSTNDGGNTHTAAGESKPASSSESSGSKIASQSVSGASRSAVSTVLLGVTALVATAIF
# Experiments:
# [1] = intravenous, single dose 10 μg, 30 μg or 100 μg, 1-168 hours
# Method: Pharmacokinetics study: Neutropenic mice were infected intratracheally with 25 μl of PBS containing 2.5×10^5 spores of Rhizopus delemear. […] After infection, mice were treated daily with 5 mg in 0.2 ml of irrigation water with ceftazidime subcutaneously to prevent bacterial superinfection. […] Mouse serum samples were collected at the time points: 1 hour, 2 hours, 4 hours, 8 hours, 24 hours, 72 hours, 120 hours, and 168 hours after the antibody injection. The antibody concentration in the mouse serum samples was detected by ELISA, with Flag-CotH3 as the coating protein, and anti-human-IgG-HRP as the secondary antibody.
# R. delemar 99-880 = assay: Neutropenic mouse model of mucormycosis, R. delemar 99-880 infection; assay type: in vivo, Rhizopus delemar; conditions: single dose of 30 μg 24 h after infection, lungs harvested day 4
# Method: Mouse models: Neutropenic mice model used male ICR mice (20 to 23 g) obtained from Envigo (NJ). Mice were injected with cyclophosphamide (200 mg/kg, given intraperitoneally) and cortisone acetate (500 mg/kg, given subcutaneously) on days −2, +3, and +8 relative to infection^(1).
# Antibody treatment with a single dose of 30 μg humanized antibody, or isotype human IgG started 24 or 48 hours after infection and was administered by intraperitoneal injection. Time to moribundity (equated with survival) served as the primary endpoint. As a secondary endpoint and in some experiments, fungal burden in the lungs and brains (primary and secondary target organs) was determined 96 hours after infection by quantitative PCR assay, as we previously described^(3). Values were expressed as log10 spore equivalent per gram of tissue. Histopathological examination was carried out on sections of the harvested organs after fixing in 10% zinc formalin. The fixed organs were embedded in paraffin, and […] sections were stained with hematoxylin and eosin.
# CotH3 antigen = CotH3 antigen (Rhizopus delemar, UniProt I1CFE1); conditions: Protein G sensor, CotH3 6.25-400 nM, 25° C.
# Chain of CotH3 antigen (I1CFE1 18-601): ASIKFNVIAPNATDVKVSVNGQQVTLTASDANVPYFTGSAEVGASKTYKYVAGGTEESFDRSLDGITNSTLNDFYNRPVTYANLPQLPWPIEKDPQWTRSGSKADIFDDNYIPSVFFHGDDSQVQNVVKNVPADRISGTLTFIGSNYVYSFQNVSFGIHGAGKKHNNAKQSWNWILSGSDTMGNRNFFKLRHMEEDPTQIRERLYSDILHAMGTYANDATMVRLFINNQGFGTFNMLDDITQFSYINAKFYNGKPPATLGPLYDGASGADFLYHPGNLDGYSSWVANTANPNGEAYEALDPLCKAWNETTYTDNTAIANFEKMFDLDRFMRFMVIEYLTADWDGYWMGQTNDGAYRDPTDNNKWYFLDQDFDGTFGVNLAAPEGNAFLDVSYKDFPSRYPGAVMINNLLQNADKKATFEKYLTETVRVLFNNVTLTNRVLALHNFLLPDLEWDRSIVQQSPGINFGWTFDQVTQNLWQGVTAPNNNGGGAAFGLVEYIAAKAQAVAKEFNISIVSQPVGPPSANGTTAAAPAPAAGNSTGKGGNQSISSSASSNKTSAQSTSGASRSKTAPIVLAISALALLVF
# Method: The purified preparations were then used to assess the affinity of each clone for the CotH3 antigen by biolayer interferometry using Gator system (ProbeLife). Under the assumption that the CotH3 antigen provided by Vitalex behaves as a normal soluble monomeric protein, a Protein G coated sensor probe (ProbeLife, catalog #160006) was loaded with the bivalent antibody test clone at a concentration of 5 μg/ml in ProbeLife's kinetic buffer (PBS pH 7.4, 0.02% BSA, 0.002% Tween-20, 0.005% NaN3). A serial dilution of CotH3 antigen of 400, 200, 100, 50, 25, 12.5, 6.25 nM and buffer only (0 nM) was added to the sensors. All reactions were performed at 25° C. The values are chosen when three or more concentrations yield the same kinetic values. The original murine mAb was provided by Vitalex as the reference.
# Mucorales CotH2 = molecular target: T1, Mucorales CotH2
# Mucorales CotH3 = Mucorales CotH3 (Rhizopus delemar, UniProt I1CFE1)
# Chain of Mucorales CotH3 (I1CFE1 18-601): as above
molecule,measurement,setting,value
"mAb: mouse monoclonal IgG1 kappa anti-CotH3 antibody, clone C2, raised against peptide SEQ ID NO:34 (antibody, V domains shown) VH: DLQLQESGPSLVKPSQTLSLTCSVTGDSITSGYWNWIRKFPGNKLEHMGYIKYSGRTFYNPSLKSRVSITRDTSKNQYYLQLNSVTSEDTATYYCASRGYWGQGTTLTVSS VL: DVVMTQTPLSLSVTIGQPASISCKSSQSLLYSNGKTYLNWLQQRPGQAPKLLMFQVSKPGIPDRFSGSGSETDFTLKISRVEAEDLGVYYCLQGTYFPHTFGAGTKVEIK",pharmacokinetics (serum antibody concentration),[1],Dose dependent pharmacokinetics
same,lung histology,R. delemar 99-880,no fungal elements and normal lung architecture
same,Koff (S^−1),CotH3 antigen,1.41E−3 S^−1
same,Kon,CotH3 antigen,23900 M⁻¹ s⁻¹
same,Rmax,CotH3 antigen,0.69
same,specific binding to CotH2,Mucorales CotH2,bound specifically
same,specific binding to CotH3,Mucorales CotH3,bound specifically
